According to PMC12756002, “Mutations in Hsp40 co-chaperone change the canonical interdomain interactions stimulating LGMDD1 myopathy” (The Journal of Biological Chemistry, 2025):

What was measured:
Ssa1-WT = target: T1, Ssa1-WT (yeast, UniProt P10591 1-642); test: ELISA; Ssa1 (200 nM) immobilised in microtiter wells; dilutions of Sis1-WT or mutants (0-50 nM); bound Sis1 detected with an anti-Sis1 antibody; no client; conditions: both partners purified
T1 construct: Ssa1, yeast Hsp70; Cloned into pPROEx-Htb; cleavage of the tag follows from 'the remaining purification steps were analogous to those for Sis1-WT'; also called Hsp70; source: E. coli Rosetta 2(DE3), purified (Talon resin, steps analogous to Sis1)
T1 sequence (P10591 whole entry): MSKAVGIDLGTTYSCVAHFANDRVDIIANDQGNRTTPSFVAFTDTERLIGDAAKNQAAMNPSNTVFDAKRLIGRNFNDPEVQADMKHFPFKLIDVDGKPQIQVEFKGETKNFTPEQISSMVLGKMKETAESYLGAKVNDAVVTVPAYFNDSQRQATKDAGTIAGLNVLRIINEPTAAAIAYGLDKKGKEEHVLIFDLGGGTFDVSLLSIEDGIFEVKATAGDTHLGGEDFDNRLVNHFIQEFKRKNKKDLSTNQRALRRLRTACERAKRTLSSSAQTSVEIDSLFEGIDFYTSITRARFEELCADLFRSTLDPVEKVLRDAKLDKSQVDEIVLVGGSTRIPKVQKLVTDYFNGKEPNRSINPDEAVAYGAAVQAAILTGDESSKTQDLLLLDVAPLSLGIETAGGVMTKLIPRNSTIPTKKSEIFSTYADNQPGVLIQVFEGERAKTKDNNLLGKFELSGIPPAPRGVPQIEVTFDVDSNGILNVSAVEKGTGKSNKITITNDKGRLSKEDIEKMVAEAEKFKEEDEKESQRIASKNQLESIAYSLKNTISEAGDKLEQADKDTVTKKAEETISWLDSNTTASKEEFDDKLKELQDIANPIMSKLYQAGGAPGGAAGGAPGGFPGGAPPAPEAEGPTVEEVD

full-length Rnq1 = target: T2, full-length Rnq1 (yeast, UniProt P25367 1-405); test: ELISA; denatured substrate (FL Rnq1 or ΔN Rnq1 400 ng, luciferase 100 ng) immobilised in microtiter wells; dilutions of Sis1-WT or mutants (0-20 or 0-25 nM) in PBS-T with 0.5% BSA, overnight at room temperature; retained Sis1 detected with an anti-Sis1 antibody; conditions: both partners purified
T2 construct: also called FL Rnq1; Rnq1-WT
T2 sequence (looked up): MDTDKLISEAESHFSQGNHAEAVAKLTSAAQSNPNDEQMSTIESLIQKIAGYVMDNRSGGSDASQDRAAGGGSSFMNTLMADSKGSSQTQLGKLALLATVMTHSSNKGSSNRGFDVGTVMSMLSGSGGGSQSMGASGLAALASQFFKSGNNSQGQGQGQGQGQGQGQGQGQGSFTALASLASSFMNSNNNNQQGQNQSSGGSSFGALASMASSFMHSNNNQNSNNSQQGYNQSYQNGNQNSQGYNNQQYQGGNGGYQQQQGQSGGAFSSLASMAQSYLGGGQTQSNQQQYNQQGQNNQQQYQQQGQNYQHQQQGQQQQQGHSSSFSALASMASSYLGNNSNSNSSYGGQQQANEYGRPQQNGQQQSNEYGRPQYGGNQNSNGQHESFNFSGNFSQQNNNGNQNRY

Binder	binding result (Ssa1-WT)	binding result (full-length Rnq1)
Sis1-WT (natural protein, yeast, UniProt P25294 1-352, looked up, Sis1, essential yeast DNAJ (Hsp40) protein, homolog of human DNAJB6; Cloned into pPROEx-Htb (hexa-His-tag, TEV site); also called Hsp40; wild-type Sis1; source: E. coli Lemo21(DE3), purified (Talon cobalt resin, TEV cleavage, second Talon pass)) MVKETKLYDLLGVSPSANEQELKKGYRKAALKYHPDKPTGDTEKFKEISEAFEILNDPQKREIYDQYGLEAARSGGPSFGPGGPGGAGGAGGFPGGAGGFSGGHAFSNEDAFNIFSQFFGGSSPFGGADDSGFSFSSYPSGGGAGMGGMPGGMGGMHGGMGGMPGGFRSASSSPTYPEEETVQVNLPVSLEDLFVGKKKSFKIGRKGPHGASEKTQIDIQLKPGWKAGTKITYKNQGDYNPQTGRRKTLQFVIQEKSHPNFKRDGDDLIYTLPLSFKESLLGFSKTIQTIDGRTLPLSRVQPVQPSQTSTYPGQGMPTPKNPSQRGNLIVKYKVDYPISLNDAQKRAIDENF	binds	binds
Sis1-N56L (natural protein, yeast, UniProt P25294 1-352, looked up, Sis1, essential yeast DNAJ (Hsp40) protein, with the J-domain mutation N56L; also called homologous to DNAJB6-S57L; LGMDD1 J-domain mutant; source: E. coli Lemo21(DE3), purified (Talon cobalt resin, TEV cleavage, second Talon pass)) MVKETKLYDLLGVSPSANEQELKKGYRKAALKYHPDKPTGDTEKFKEISEAFEILLDPQKREIYDQYGLEAARSGGPSFGPGGPGGAGGAGGFPGGAGGFSGGHAFSNEDAFNIFSQFFGGSSPFGGADDSGFSFSSYPSGGGAGMGGMPGGMGGMHGGMGGMPGGFRSASSSPTYPEEETVQVNLPVSLEDLFVGKKKSFKIGRKGPHGASEKTQIDIQLKPGWKAGTKITYKNQGDYNPQTGRRKTLQFVIQEKSHPNFKRDGDDLIYTLPLSFKESLLGFSKTIQTIDGRTLPLSRVQPVQPSQTSTYPGQGMPTPKNPSQRGNLIVKYKVDYPISLNDAQKRAIDENF	binds	binds
Sis1-E53A (natural protein, yeast, UniProt P25294 1-352, looked up, Sis1, essential yeast DNAJ (Hsp40) protein, with the J-domain mutation E53A; also called homologous to DNAJB6-E54A; LGMDD1 J-domain mutant; source: E. coli Lemo21(DE3), purified (Talon cobalt resin, TEV cleavage, second Talon pass)) MVKETKLYDLLGVSPSANEQELKKGYRKAALKYHPDKPTGDTEKFKEISEAFAILNDPQKREIYDQYGLEAARSGGPSFGPGGPGGAGGAGGFPGGAGGFSGGHAFSNEDAFNIFSQFFGGSSPFGGADDSGFSFSSYPSGGGAGMGGMPGGMGGMHGGMGGMPGGFRSASSSPTYPEEETVQVNLPVSLEDLFVGKKKSFKIGRKGPHGASEKTQIDIQLKPGWKAGTKITYKNQGDYNPQTGRRKTLQFVIQEKSHPNFKRDGDDLIYTLPLSFKESLLGFSKTIQTIDGRTLPLSRVQPVQPSQTSTYPGQGMPTPKNPSQRGNLIVKYKVDYPISLNDAQKRAIDENF	binds	binds
